Measured values from publication doi:10.1101/2021.03.26.437179 (bioRxiv, 2021).

Legend:
Test in all cases: pull-down
HIS-PUB26 = target: T1, HIS-PUB26 (Arabidopsis thaliana, UniProt Q9FXA4 1-421)
T1 sequence (looked up): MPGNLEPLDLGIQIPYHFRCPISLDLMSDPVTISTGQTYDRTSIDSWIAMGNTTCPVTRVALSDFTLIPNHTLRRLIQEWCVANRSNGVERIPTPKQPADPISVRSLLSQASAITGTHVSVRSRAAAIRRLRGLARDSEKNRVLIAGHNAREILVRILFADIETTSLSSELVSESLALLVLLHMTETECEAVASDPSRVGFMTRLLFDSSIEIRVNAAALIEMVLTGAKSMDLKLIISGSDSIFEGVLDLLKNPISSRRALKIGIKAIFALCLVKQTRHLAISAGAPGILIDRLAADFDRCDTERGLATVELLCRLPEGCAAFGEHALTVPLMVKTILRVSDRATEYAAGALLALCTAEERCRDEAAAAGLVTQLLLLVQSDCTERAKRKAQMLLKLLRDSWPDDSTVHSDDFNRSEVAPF

GST-PUB26 = target: T2, GST-PUB26 (Arabidopsis thaliana, UniProt Q9FXA4 1-421)
T2 sequence (looked up): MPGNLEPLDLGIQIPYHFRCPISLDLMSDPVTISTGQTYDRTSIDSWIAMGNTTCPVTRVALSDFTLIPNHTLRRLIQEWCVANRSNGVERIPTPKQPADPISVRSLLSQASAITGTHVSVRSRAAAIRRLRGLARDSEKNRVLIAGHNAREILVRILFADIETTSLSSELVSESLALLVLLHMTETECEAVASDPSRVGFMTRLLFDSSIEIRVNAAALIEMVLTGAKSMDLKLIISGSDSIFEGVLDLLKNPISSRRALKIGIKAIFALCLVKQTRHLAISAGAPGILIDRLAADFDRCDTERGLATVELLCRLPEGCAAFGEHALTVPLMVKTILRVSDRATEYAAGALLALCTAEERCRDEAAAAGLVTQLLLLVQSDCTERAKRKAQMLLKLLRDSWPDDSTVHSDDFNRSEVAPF

GST-PUB25 = target: T3, GST-PUB25 (Arabidopsis thaliana, UniProt Q9LT79 1-421)
T3 sequence (looked up): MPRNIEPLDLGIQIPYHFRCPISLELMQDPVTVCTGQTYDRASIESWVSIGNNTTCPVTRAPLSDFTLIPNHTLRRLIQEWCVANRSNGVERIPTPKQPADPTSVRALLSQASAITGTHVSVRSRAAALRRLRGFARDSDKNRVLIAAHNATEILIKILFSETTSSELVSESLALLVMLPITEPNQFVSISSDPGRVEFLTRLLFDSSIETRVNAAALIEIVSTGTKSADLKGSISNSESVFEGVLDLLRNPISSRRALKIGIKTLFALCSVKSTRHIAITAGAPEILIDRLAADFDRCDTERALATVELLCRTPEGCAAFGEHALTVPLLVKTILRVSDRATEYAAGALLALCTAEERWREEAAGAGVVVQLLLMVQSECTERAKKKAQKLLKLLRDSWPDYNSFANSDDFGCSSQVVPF

binding result (HIS-PUB26): binds
binding result (GST-PUB26): binds
binding result (GST-PUB25): binds
B1: MBP-MYB6 (natural protein, Arabidopsis thaliana, UniProt Q38851 1-236, looked up)
chain: MGRSPCCEKAHTNKGAWTKEEDQRLVDYIRNHGEGCWRSLPKSAGLLRCGKSCRLRWINYLRPDLKRGNFTDDEDQIIIKLHSLLGNKWSLIAGRLPGRTDNEIKNYWNTHIKRKLLSHGIDPQTHRQINESKTVSSQVVVPIQNDAVEYSFSNLAVKPKTENSSDNGASTSGTTTDEDLRQNGECYYSDNSGHIKLNLDLTLGFGSWSGRIVGVGSSADSKPWCDPVMEARLSLL
